From US20250346679A1 (INVOX PHARMA, published 2025)
Residue numbers refer to the chain shown, from its start. Values belong to the binder of their own block, whether it stands above or below them.

Assays:
hCD137-mFc-Avi = target: T1, hCD137-mFc-Avi (human; mouse, UniProt Q07011 24-186, biotin on the Avi sequence where the biotinylated form was used); experiment: flow cytometry of yeast clones with 10 nM dimeric human antigen
T1 construct: also called human CD137-mFc-Avi; dimeric human CD137; not shown: mouse IgG2a Fc domain (mIgG2a Fc)

human CD40 = human CD40 (human, UniProt P25942 21-193, limits assumed); experiment: SPR, receptor amine-coupled to CM5 (~1000 RU)
Protocol: (§1) The specificity of the anti-human CD137 Fcabs for human CD137 compared to other related TNFSFR family members was tested. 8 of the Fcabs were tested in mock mAb² (HeID1.3) format and measured by SPR in a Biacore T200 (GE Healthcare) by testing for binding to other human TNFRSF receptors: CD40, OX40 and GITR. Amine coupling (amine coupling kit, GE Healthcare, BR-1000-50) was used to coat human CD40, GITR and OX40 to approximately 1000 RU in Biacore CM5 chips (GE Healthcare, cat no 29149603). […] The chip was regenerated by injection of 10 mM glycine pH 2.5 for 12 s at 30 μl/min. Antibodies specific to the different TNFRSF members were used as positive controls to verify Biacore chip coating. Data was double reference subtracted and analysed using BIAevaluation 3.2 software.

human OX40 = target: T2, human OX40 (human, UniProt P43489 29-216); experiment: SPR, receptor amine-coupled to CM5 (~1000 RU)
T2 sequence (looked up): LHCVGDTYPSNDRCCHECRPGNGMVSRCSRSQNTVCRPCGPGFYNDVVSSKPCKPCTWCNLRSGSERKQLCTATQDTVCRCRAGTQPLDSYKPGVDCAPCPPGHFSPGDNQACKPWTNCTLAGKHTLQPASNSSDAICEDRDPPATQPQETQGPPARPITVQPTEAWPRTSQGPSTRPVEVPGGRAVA
Protocol: as §1

human GITR = target: T3, human GITR (human, UniProt Q9Y5U5 26-161, limits assumed); experiment: SPR, receptor amine-coupled to CM5 (~1000 RU)
T3 sequence (looked up): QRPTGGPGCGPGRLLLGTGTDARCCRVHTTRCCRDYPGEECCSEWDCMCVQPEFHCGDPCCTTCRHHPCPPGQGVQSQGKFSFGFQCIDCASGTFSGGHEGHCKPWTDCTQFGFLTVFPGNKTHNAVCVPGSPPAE
Protocol: as §1

[1] = target: human CD137, cell-surface (human, UniProt Q07011 24-255); experiment: cell-based or functional assay
[2] = target: T4, cynomolgus CD137, cell-surface (cynomolgus, UniProt Q07011 24-255 (human entry)); experiment: cell-based or functional assay
T4 chain: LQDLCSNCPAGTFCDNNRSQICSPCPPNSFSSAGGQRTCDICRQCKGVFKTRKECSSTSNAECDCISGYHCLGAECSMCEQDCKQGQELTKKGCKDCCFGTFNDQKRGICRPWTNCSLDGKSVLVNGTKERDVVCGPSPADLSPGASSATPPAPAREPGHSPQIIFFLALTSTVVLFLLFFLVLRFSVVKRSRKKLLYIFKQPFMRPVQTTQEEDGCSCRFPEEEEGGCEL

[3] = target: human PD-L1, cell-surface (human, UniProt Q9NZQ7 19-290); experiment: cell-based or functional assay
human PD-L1, cell-surface, sequence (Q9NZQ7 19-290): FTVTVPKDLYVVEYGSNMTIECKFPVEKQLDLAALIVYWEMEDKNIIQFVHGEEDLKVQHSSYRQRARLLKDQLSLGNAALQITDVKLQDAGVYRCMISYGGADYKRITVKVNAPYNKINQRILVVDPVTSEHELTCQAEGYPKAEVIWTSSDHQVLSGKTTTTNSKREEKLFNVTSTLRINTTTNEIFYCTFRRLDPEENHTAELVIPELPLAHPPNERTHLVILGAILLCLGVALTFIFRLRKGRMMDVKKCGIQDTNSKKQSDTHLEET

T1 sequence (Q07011 24-186): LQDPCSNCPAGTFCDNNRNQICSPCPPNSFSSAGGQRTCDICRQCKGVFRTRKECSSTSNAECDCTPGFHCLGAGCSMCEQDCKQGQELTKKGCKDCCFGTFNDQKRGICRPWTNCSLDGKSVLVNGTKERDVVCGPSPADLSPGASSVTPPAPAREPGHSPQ
human CD40, sequence (P25942 21-193 limits assumed): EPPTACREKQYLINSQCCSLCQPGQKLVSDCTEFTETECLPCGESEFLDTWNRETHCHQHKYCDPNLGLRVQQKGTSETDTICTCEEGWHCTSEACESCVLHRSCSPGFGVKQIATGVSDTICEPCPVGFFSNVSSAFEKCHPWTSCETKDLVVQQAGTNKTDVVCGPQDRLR

- % APC positive cells (hCD137-mFc-Avi): > 30%
B2: FS22-053-008 Fcab clone displayed on yeast (designed binder)
chain: GQPREPQVYTLPPSRDELNPPYLFSNQVSLTCLVKGFYPSDIAVEWESNGQPENNYKTTPPVLDSDGSFFLYSKLTVDYWRWLEGNVFSCSVMHEALHNHYTQKSLSLSPG
notes: yeast display clone, FS22-053 EF library

- % APC positive cells (hCD137-mFc-Avi): > 30%
B8: FS22-053-011 Fcab clone displayed on yeast (designed binder)
chain: B2 chain with L83T, E84D
notes: as for B2

- % APC positive cells (hCD137-mFc-Avi): > 10%
B10: FS22-172-002 Fcab clone displayed on yeast (designed binder)
chain: B2 chain with N19P, P20F, P21Q, Y22M, L23P, F24P, S25Y, D78G, Y79A, W80D

- EC50 (nM), hIL-2 release, CD8+ T cells, donor 171115A, HEK.hPD-L1 XL [1]: 0.13 nM
- EC50 (nM), hIL-2 release, CD8+ T cells, donor 171115A, MDA-MB-231 XL [1]: 0.02 nM
- EC50 (nM), hIL-2 release, CD8+ T cells, donor 171115B, HEK.hPD-L1 XL [1]: 0.12 nM
- EC50 (nM), hIL-2 release, CD8+ T cells, donor 171115B, MDA-MB-231 XL [1]: 0.02 nM
- EC50 (nM) (crosslinked), mIL-2 release, DO11.10.cCD137 with HEK.cyPD-L1 [2]: 0.07 nM
- Emax (pg/ml) (crosslinked), mIL-2 release, DO11.10.cCD137 with HEK.cyPD-L1 [2]: 9660 pg/mL
B14: FS22-053-008-AA/G12v2 (bispecific antibody, human IgG1, kappa, L234A L235A)
heavy: EVQLVQSGAEVKRPGASVKVSCKASGYTFTSYGISWVRQAPGQGLEWMGWISAYSGGTNYAQKLQGRVTMTTDTSTSTAYMELRSLRSDDTAVYYCARDLFPTIFGVSYYYYWGQGTLVTVSSASTKGPSVFPLAPSSKSTSGGTAALGCLVKDYFPEPVTVSWNSGALTSGVHTFPAVLQSSGLYSLSSVVTVPSSSLGTQTYICNVNHKPSNTKVDKKVEPKSCDKTHTCPPCPAPEAAGGPSVFLFPPKPKDTLMISRTPEVTCVVVDVSHEDPEVKFNWYVDGVEVHNAKTKPREEQYNSTYRVVSVLTVLHQDWLNGKEYKCKVSNKALPAPIEKTISKAKGQPREPQVYTLPPSRDELNPPYLFSNQVSLTCLVKGFYPSDIAVEWESNGQPENNYKTTPPVLDSDGSFFLYSKLTVDYWRWLEGNVFSCSVMHEALHNHYTQKSLSLSPG
light: DIQMTQSPSTLSASVGDRVTITCRASQSISGRLAWYQQKPGKAPNLLIYEASNLESGVPSRFSGSGSGTEFTLTISSLQPEDFATYYCQQSYSWPRTFGQGTKVEIKRTVAAPSVFIFPPSDEQLKSGTASVVCLLNNFYPREAKVQWKVDNALQSGNSQESVTEQDSKDSTYSLSSTLTLSKADYEKHKVYACEVTHQGLSSPVTKSFNRGEC

- EC50 (nM), hIL-2 release, CD8+ T cells, donor 171115A, HEK.hPD-L1 XL [1]: 0.11 nM
- EC50 (nM), hIL-2 release, CD8+ T cells, donor 171115A, MDA-MB-231 XL [1]: 0.01 nM
- EC50 (nM), hIL-2 release, CD8+ T cells, donor 171115B, HEK.hPD-L1 XL [1]: 0.12 nM
- EC50 (nM), hIL-2 release, CD8+ T cells, donor 171115B, MDA-MB-231 XL [1]: 0.01 nM
- EC50 (nM), IFN-γ release, human MLR [3]: 0.04 nM
- Emax (pg/ml), IFN-γ release, human MLR [3]: 3330 pg/mL
- EC50 (nM) (crosslinked), mIL-2 release, DO11.10.cCD137 with HEK.cyPD-L1 [2]: 0.11 nM
- Emax (pg/ml) (crosslinked), mIL-2 release, DO11.10.cCD137 with HEK.cyPD-L1 [2]: 9360 pg/mL
B15: FS22-053-017-AA/E12v2 (bispecific antibody, human IgG1, kappa, L234A L235A)
heavy: B14 heavy with T28P, D424Y, Y425H
light: DIQMTQSPSTLSASVRDRVIITCRASQSIGNRLAWYQHKPGKAPKLLIYEASTSETGVPSRFSGSGSGTDFTLTISSLQPEDFATYYCQQSYSTPYTFGQGTKLEIKRTVAAPSVFIFPPSDEQLKSGTASVVCLLNNFYPREAKVQWKVDNALQSGNSQESVTEQDSKDSTYSLSSTLTLSKADYEKHKVYACEVTHQGLSSPVTKSFNRGEC

- EC50 (nM), hIL-2 release, CD8+ T cells, donor 171115A, HEK.hPD-L1 XL [1]: 0.15 nM
- EC50 (nM), hIL-2 release, CD8+ T cells, donor 171115A, MDA-MB-231 XL [1]: 0.01 nM
- EC50 (nM), hIL-2 release, CD8+ T cells, donor 171115B, HEK.hPD-L1 XL [1]: 0.12 nM
- EC50 (nM), hIL-2 release, CD8+ T cells, donor 171115B, MDA-MB-231 XL [1]: 0.01 nM
- EC50 (nM) (crosslinked), mIL-2 release, DO11.10.cCD137 with HEK.cyPD-L1 [2]: 0.1 nM
- Emax (pg/ml) (crosslinked), mIL-2 release, DO11.10.cCD137 with HEK.cyPD-L1 [2]: 9020 pg/mL
B16: FS22-053-017-AA/E05v2 (bispecific antibody, human IgG1, kappa, L234A L235A)
heavy: B14 heavy with D424Y, Y425H
light: DIQMTQSPSTLSASVGDRVTITCRASQSISGRLAWYQQKPGKAPNLLIYEASNLESGVPSRFSGSGSGTEFTLTISSLQPEDFATYYCQQSYSTPRVTFGQGTKVEIKRTVAAPSVFIFPPSDEQLKSGTASVVCLLNNFYPREAKVQWKVDNALQSGNSQESVTEQDSKDSTYSLSSTLTLSKADYEKHKVYACEVTHQGLSSPVTKSFNRGEC

- EC50 (nM), hIL-2 release, CD8+ T cells, donor 171115A, HEK.hPD-L1 XL [1]: 0.1 nM
- EC50 (nM), hIL-2 release, CD8+ T cells, donor 171115A, MDA-MB-231 XL [1]: 0.01 nM
- EC50 (nM), hIL-2 release, CD8+ T cells, donor 171115B, HEK.hPD-L1 XL [1]: 0.2 nM
- EC50 (nM), hIL-2 release, CD8+ T cells, donor 171115B, MDA-MB-231 XL [1]: 0.01 nM
- EC50 (nM) (crosslinked), mIL-2 release, DO11.10.cCD137 with HEK.cyPD-L1 [2]: 0.08 nM
- Emax (pg/ml) (crosslinked), mIL-2 release, DO11.10.cCD137 with HEK.cyPD-L1 [2]: 8930 pg/mL
B17: FS22-053-017-AA/G12v2 (bispecific antibody, human IgG1, kappa, L234A L235A)
heavy: B14 heavy with D424Y, Y425H
light: B14 light

Continued, binder first:

B1: FS22-172-004 Fcab clone displayed on yeast (designed binder)
chain: B2 chain with P20Y, P21I, L23P, F24P, S25Y, D78G, Y79A, W80D
- % APC positive cells (hCD137-mFc-Avi): > 10%

B3: FS22-172-005 Fcab clone displayed on yeast (designed binder)
chain: B2 chain with N19Q, P20Q, P21V, L23P, F24P, S25Y, D78G, Y79A, W80D
- % APC positive cells (hCD137-mFc-Avi): > 10%

B4: FS22-172-003 Fcab clone displayed on yeast (designed binder)
chain: B2 chain with N19P, P20Y, P21I, Y22I, L23P, F24P, S25Y, D78G, Y79A, W80D
- % APC positive cells (hCD137-mFc-Avi): > 10%

B5: FS22-172-001 Fcab clone displayed on yeast (designed binder)
chain: B2 chain with N19P, P20F, P21V, Y22M, L23P, F24P, S25Y, D78G, Y79A, W80D
- % APC positive cells (hCD137-mFc-Avi): > 10%

B6: FS22-053-009 Fcab clone displayed on yeast (designed binder)
chain: B2 chain with D78E, Y79H, W80T, E84D
notes: as for B2
- % APC positive cells (hCD137-mFc-Avi): > 30%

B7: FS22-053-010 Fcab clone displayed on yeast (designed binder)
chain: B2 chain with W80M, E84D
notes: as for B2
- % APC positive cells (hCD137-mFc-Avi): > 30%

B9: FS22-053-012 Fcab clone displayed on yeast (designed binder)
chain: B2 chain with Y79H, W80M
notes: as for B2
- % APC positive cells (hCD137-mFc-Avi): > 30%

B11: FS22-172-006 Fcab clone displayed on yeast (designed binder)
chain: B2 chain with N19R, P20K, P21Y, L23P, F24P, S25Y, V28L, D78G, Y79A, W80D
- % APC positive cells (hCD137-mFc-Avi): > 10%

B12: FS22-053-009/HeID1.3 (bispecific antibody, human IgG1, kappa)
heavy: QVQLQESGPGLVRPSQTLSLTCTVSGSTFSGYGVNWVRQPPGRGLEWIGMIWGDGNTDYNSALKSRVTMLVDTSKNQFSLRLSSVTAADTAVYYCARERDYRLDYWGQGSLVTVSSASTKGPSVFPLAPSSKSTSGGTAALGCLVKDYFPEPVTVSWNSGALTSGVHTFPAVLQSSGLYSLSSVVTVPSSSLGTQTYICNVNHKPSNTKVDKKVEPKSCDKTHTCPPCPAPELLGGPSVFLFPPKPKDTLMISRTPEVTCVVVDVSHEDPEVKFNWYVDGVEVHNAKTKPREEQYNSTYRVVSVLTVLHQDWLNGKEYKCKVSNKALPAPIEKTISKAKGQPREPQVYTLPPSRDELNPPYLFSNQVSLTCLVKGFYPSDIAVEWESNGQPENNYKTTPPVLDSDGSFFLYSKLTVEHTRWLDGNVFSCSVMHEALHNHYTQKSLSLSPG
light: DIQMTQSPASLSASVGETVTITCRASGNIHNYLAWYQQKQGKSPQLLVYNAKTLADGVPSRFSGSGSGTQYSLKINSLQPEDFGSYYCQHFWSTPRTFGGGTKLEIKRTVAAPSVFIFPPSDEQLKSGTASVVCLLNNFYPREAKVQWKVDNALQSGNSQESVTEQDSKDSTYSLSSTLTLSKADYEKHKVYACEVTHQGLSSPVTKSFNRGEC
notes: mock mAb^2; also called FS22-053-009 (mock mAb^2 format)
- binding result (human CD40): no binding (tested: 1 µM)
- binding result (human OX40): no binding (tested: 1 µM)
- binding result (human GITR): no binding (tested: 1 µM)

B13: FS22-053-010/HeID1.3 (bispecific antibody, human IgG1, kappa)
heavy: B12 heavy with E417D, H418Y, T419M
light: B12 light
notes: mock mAb^2; also called FS22-053-010 (mock mAb^2 format)
- binding result (human CD40): no binding (tested: 1 µM)
- binding result (human OX40): no binding (tested: 1 µM)
- binding result (human GITR): no binding (tested: 1 µM)
